Assay: yeast display, Sf9 membrane polyspecificity reagent, FACS + sequencing; frameworks hold sequencing errors
In short: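 Using colony PCR, genes from sorted yeast display clones were amplified, then sequenced on MiSeq at 2 × 250 and filtered by CDR length. The clones had been stained with 10% biotinylated, detergent-solubilized Sf9 membrane reagent for 1 hour at 4 °C and sorted by FACS into low and high (top ~1%) gates on anti-HA and streptavidin fluorescence. Polyreactivity labels come from the gate of origin.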

Sequence: QVQLVESGGGLVQAGGSLRLSCAASGFIFTSYARGWYRQAPGKDRELVAAITRSGASTSYADSVKGRFTISRDNAKNTVYLQMNSLKPEDTAVYYCAAKAPLPRYYVPRYDYWGQGTQVTVSS
- polyreactivity (PSR sort gate): high polyreactivity

Sequence: QVQLVESCGGLVQAGGSLLLSCAASGGTFCDYAMVWYRQAPGKEREFVASITRSVSDTYYADSVKGRFTISRDNAKNTVYLQINSLKPEDTAVYYCKADRWYPWRSIMDYWGQGTQVSVSS
- polyreactivity (PSR sort gate): low polyreactivity

Sequence: QVQLVESGGGLVQAGGSLRLSCAASGSILDLNAMGWYRQAPGKERELVAAISYSGDSTYYADSVKGRFTISRDNAKNTVYLQMNSLKPEDTAVYYCNAASFSDQGTLNHFYDWGQGTQVTVSS
- polyreactivity (PSR sort gate): low polyreactivity

Sequence: QVQLVESGGGLVQAGGSLRLSCAASGSIFDVYTMGWYRQAPGKVRELVAAINTGGGSTYYADSVMGRFTISRDNAKNTVYLEMNSLKPEDTAVYYCAASVYHYGPLYYWGEGTQVTVSS
- polyreactivity (PSR sort gate): low polyreactivity

Sequence: QVQLVESGGGLVQAGGRLRLSCAASGSTFSDYAMGWYRQAPGKERELVADISRSGASTYYADSVKGRFTISRYNAKNTVYLQMNSLKPEDTPVYSSNKAYSGVRYDSWGPGTQVTVSS
- polyreactivity (PSR sort gate): low polyreactivity

Sequence: QVQLVESGGGLVQAGGSLRLSCAASGSTFSYNTMGWYRQAPGKERELVATISSSSGSTTYADSVKGRFTISRDIAKNTVYLQINSLKPEDTAVYYCNVDDPFYSGVVEFDYWGQGTQVTVSS
- polyreactivity (PSR sort gate): low polyreactivity

Sequence: QVQLVESGGGLFQAGGSLRLSCAASGFTCSGYAMGWYRPAPGKERELVAGISASAGSTYADSVKGRFTISRDNAKNTVYLQMNSLKPEDTAVYYCAADLSFKAAIWFNEYGYWGQGTQVTVSS
- polyreactivity (PSR sort gate): low polyreactivity

Sequence: QVQLVESGGGLVQAGGSLRLSCAASGLTFYRYAMGWYRQAPGKERELVAAITSGGGRTYYADSVKGRFTISRDNAKNTVYLQMNSLKPEDTAVYYCAADRGDYRWRGLTPSSYGYWGQGTQVTVSS
- polyreactivity (PSR sort gate): high polyreactivity

Sequence: QVQLVESGGGLVQAGGSLRLSCAASGSIFYLYALGWYRQAPGKERELVAAISSSGGRTYYADSVKGRFTISRDNAKNTVYLQMNSLKPEDTAVYYCAARYWAKYSYGYWGQGTQVTVSS
- polyreactivity (PSR sort gate): high polyreactivity

Sequence: QVQLVESGGGLVQAGGSLRLSCAASGFTFSRNAMGWYRQAPGKERELVAAITSRGGSTYYADSVKGRFTISRDNAKNTVYLQMNSLKPEDTAVYYCNAKLISGIYTADSRSRIYDYWGQGTQVTVSS
- polyreactivity (PSR sort gate): high polyreactivity

Sequence: QVQLVESGGGLVQAGGSLRLSCAASGSIFGNNAMGWYRQAPGKERELVAAITSGGSTTYADSVKGRFTISRDNAKNTVYLLMNSLKPEDTAVYYCAATPVWGFVWEYNYWGQGTQVTVSS
- polyreactivity (PSR sort gate): low polyreactivity

Sequence: QDQLVESGGGLVQAGGSLRLSCAASRSTFYHNVMGWYRQAPGKERELVASIDTGDSTNYADSVKGRFTISRDNAKNTVYLQMNSLKPEDTAVYYCAAEIPRRWASFATLWYDYWGQGTQVTVSS
- polyreactivity (PSR sort gate): low polyreactivity

Sequence: QDQLVESGGGLVQAGGSLRLSCAASGLTYYVYSMGWYRQAPGKERELVARITWSGGSTYYADSVKGRFTISRDNAKNTVYLQMNSVKAEDTAVYYSAAEWSEESDYWGQVTQVTVSS
- polyreactivity (PSR sort gate): low polyreactivity

Sequence: QVQLVESGGGIVQAGGSLRLSCAASGFTFKKYAMGWYRQAPGKERELVAAISRSGGRTYYADSVKGRFTISRDNAKNTVFLQMNSLKPEDTAVYYCNADYYSAAYYYWGQGTQVTVSS
- polyreactivity (PSR sort gate): high polyreactivity

Sequence: QVQLVESGGGLVQAGGSLRLSCAASGFTFRAYAMGWYRQAPGKEREFVAAISYSGGSTYYADSVKGRFTISRDNAKNTVDLQMNSLKPEDTAVYYCATVLYSVPRYNYWGQGTQVTVSS
- polyreactivity (PSR sort gate): high polyreactivity

Sequence: QGQLVESGGGLVQAGGSLRLSCAASGSIFTFYTLGWYREAPGKVRELVAAINWSGSRTYYAASVKGRFTISRDNAKNTVYLQMNSLKPEDTAVYYCNAAIRYDWYQVLWNFSRESNYWGQGTQVTVSS
- polyreactivity (PSR sort gate): high polyreactivity

Sequence: QVQLVESGGGLVQAGGSLRVSCAASGIIFRIYAMGWYRQAPGKEREFVAAISGSGDSTYYADSVKGRLTISRDNAKTTVYLQMNSLKPEDTAVYYCAADWTLVYYHEDYWGQGTQVTVSS
- polyreactivity (PSR sort gate): low polyreactivity

Sequence: QVQLVDSGGGLVQAGGSRRVSCAASAFTFLWNAMGWYRQAPGKEREMVAAINGNSGNTYYADSVKGRFTLSVDNAKNTVYLQMNSMKAEDTAVYYCAKQGNNIPCYRPYGDYYYWGQGTQVTVSS
- polyreactivity (PSR sort gate): low polyreactivity

Sequence: QVQLVETGGGLVQAGGSLGLSCDASGRIFDYYSMGWYRQATGKERELVASITRGGITYYADSVKGRFTISRDNAKNTVYLQMNSLKPEDTAVYYCADGLRWRRTYGYWGQGTQVTVSS
- polyreactivity (PSR sort gate): high polyreactivity

Sequence: QVQLVESGGGLVQAGGSLRLSCAASGRTFGWNAMGWYRQAPGKERELVAAISLRGTSTYYADSVKGRFTISRDNAKNTVYLQMNSLKPEDTAVYYCAARGRNGVNYWGQGTQVTVSS
- polyreactivity (PSR sort gate): high polyreactivity

Sequence: QVQLVESGGGLVQAGGSLRLSCAASGSIFQANAMGWYRQAPGKERELLAAISSRGGSTYYADSVKGRFTISRDNAKNTVYLQMNSLKPGDTAVYYCAADSIQYTARPYDYWGQGTQVTVSS
- polyreactivity (PSR sort gate): low polyreactivity

Sequence: QVQLVESGGGLVQAGGSLRLSCAASGRIFSTYAMGWYRQAPGKERELVAAITNSAGSTYYADSVKGRFTISRDNAKNTVYLHMNSLKPEDTALYYCATGWSRISYGFDYWGQGTLVTVSS
- polyreactivity (PSR sort gate): low polyreactivity

Sequence: QVQLVESGGGLVQAGGSLRLSCAASGRIFGYNTMGWYRQPPGKERELVAAITSTGRTYYADSVKGRFTISRDNAKNTVYLQMNSLKPEDTAVYYCNARSSYGWPKYYYWGQGTQVTVSS
- polyreactivity (PSR sort gate): high polyreactivity

Sequence: QVQLVESGGGLVQAGGSLRLSCAASGLTFFGYPMGWYRQAPGKEREFVADITWSGGSTYYADSVKGRFTISRDNAKNTVYLQMNSLKPEDTAVYYCAADYHKAEFNYWGQGTQVTVSS
- polyreactivity (PSR sort gate): low polyreactivity

Sequence: QVQLVESGGGLVQAGGSLRLSCAASGRTLYGNTMGWYRQAPGKERELVAAITNRGGSTTYADSVKGRFTISRDNAKNTVYLQMNSLKPEDTAVYYCNKDVTPLHYDSWGQGTQVTVSS
- polyreactivity (PSR sort gate): high polyreactivity

Sequence: QVQLVESGGGLVQAGGSLRLSCAASGRNFTRNAMGWYRQAPGKEREFVAAISYRGGSTYYADSVKGRFTISRDNAKNTVYLQMNSLKPEDSAVYYCAKRIYPYYGELYWGQGTQVTVSS
- polyreactivity (PSR sort gate): high polyreactivity

Sequence: QVQLVESGGGLVQAGGSLRLSCAASGRIFRYYAMGWYRQAPGKERELVASITRRGGSTYYADSVKGRFTISRDNAKNTVYLQMNSLKPEDTAVYYCAADTYYNLGNYWGQGTQVTVSS
- polyreactivity (PSR sort gate): high polyreactivity

Sequence: QVQLVESWGGLVQAGGSLRLSCAASGFIFDNNALGWYRQAPGKERELVADISRSGGSTYADSVKGRFTISRDNAKNTVYFQMNSLKAEDTAVYYCAKDFQGRRPPKEPSAFYYWGQGTQVTVSS
- polyreactivity (PSR sort gate): low polyreactivity

Sequence: QVQLQESGGGLVQAGGSLRLSCAASGSISILQSMGWYRQAPGKERELVAGINWGATTYYADSVKGRLTTSRDYAKNTVYLQLNSLKPEDTGVYYCAFQTYFTYPLLYWGQGTQVNVSS
- polyreactivity (PSR sort gate): low polyreactivity

Sequence: QVQLVESGGGLVQAGGSLRLSCAASGYLLGHYAMGWYRQATGKERELVAAISWSGGSTSYADSVKGRFTISRDKAKITFYLQMNSLKREDTAVYDCASAYYAYSRHAGGYWGQGTQVTVSS
- polyreactivity (PSR sort gate): low polyreactivity

Sequence: QVQLVESGGGLVQAGGSLRLSCAASGSTFVPYAMGWYRQAPGKERELVAVITRGSTNYADSVKGRFTISRDNAKNTVYLQMNRLKPEDTAVYYCAVDVARGVLDYSFDSWGQGTQVTVSS
- polyreactivity (PSR sort gate): high polyreactivity

Sequence: QVQLVESGGGLVQAGGSLRLSCAASGRIFYRYALGWYRQAPGKERELVAVITSSGGRTYYADSVKGRFTISRDNAKNTVYLQMNSLKPEDTAVYYCAATPVGSHYGNYYWGQGTQVTVSS
- polyreactivity (PSR sort gate): high polyreactivity

Sequence: QVQLVESGGGLVQAGGSLRLSCAASGSFLEPYSMGRYRQATGKERELVAAISFSDTSTYYADSVKGRFTISRDNAKNTVYLQMNSLKQEDTAVYYCAATYVLYWGYEYDYWGQGTQVTVSS
- polyreactivity (PSR sort gate): high polyreactivity

Sequence: QVQLVESGGRLVQAGGSLRLSCAASGSNSFRYAIGWDRQAPGKERELVARISSGGSTNYADSVKGRFTISRDNAKNTVYLQMNRLKPEDTAVYYCAKSFRYSVYPYSHYDYWGQGTQVTVSS
- polyreactivity (PSR sort gate): high polyreactivity

Sequence: QVQLVESGGGLVQAGGRLRLSCAASGYTFSIYDMGWYRPAPGKERELVAAISWSGGSTYYADSVKGRFTISRDHAKNTVYLQMNSLKPEDTAVYYCAAKRHGSEVGRGRDYWGQGTQVTVSS
- polyreactivity (PSR sort gate): high polyreactivity

Sequence: QDQHVESGGGFVQAGGSLRLICAASGYTFYGNPMGWYRQAPGKEREFVASINYNDDSTYYADSVKGRFTISLDNAKNTDYLQMNSLKPEDTAVYYCAAEYRTRGYHWIYYWGQGTQVTVSS
- polyreactivity (PSR sort gate): low polyreactivity

Sequence: QVQLVESGGGLVQAGGSLRLSCAASGYTFPLYAMGWYIQAPGKETELVADINIGGASTYYADSVKGRFTISRDNAKNTVYLQMNSLKPEDTAVYYCAKEYYDGYFPTLDYDYWGQGTQVTVSS
- polyreactivity (PSR sort gate): low polyreactivity

Sequence: QVQLVESGGGLVQAGGSLRLSCAASGRIFDFYAMGWYSQAPGKERELVAAIASSVGNTYYADSVTGRFTISRDNAKNTVSLQMISLKPEDTAVYYCADYSYVRSSYEVEYDYWGQGTQVTVSS
- polyreactivity (PSR sort gate): low polyreactivity

Sequence: QVQLVESGGGLDQARGSLRLSCAASGSTFKSYVMGWYRQAPGKVRELVAAISQSGGNTNYADSVKGRFTISRDNAKNTVYLQMNSLKPEDTAVDYCAADVLGTTTTVGGFNYWGQGTQVTVSS
- polyreactivity (PSR sort gate): low polyreactivity

Sequence: QVQLVESGGGLVQAGGSLRLSCAASGSTFNHYTMGWYIQAPGKERELVAAISSRGGGTYYADSVKGRFTISRDNAKNTVYLQMNSLKPEDTAVYYCAALISSGIRHSRDYWGQGTQVTVSS
- polyreactivity (PSR sort gate): high polyreactivity

Sequence: QVQLVESGGGLVQAGGSLRLSCAASGSTISRNAMGWYRQAPGKERELVAAITSKGDSTYYADSVKGRFTISRDNAKNTVYLQMNSLKPEDTAVYYCAAVRRGYKYDYWGQGTQVTVSS
- polyreactivity (PSR sort gate): low polyreactivity

Sequence: QVQLEESAGGLVQAGGSLRLSCAASGYTFGRYAMGWYRQEPGKERELVAVITTGDSTYYADSVKGRFTISRDNAKNTVNLLMNSLKPEDTAVYYCAADGRLSRPFDYWGQGTQVTVSS
- polyreactivity (PSR sort gate): low polyreactivity

Sequence: QVQLVESGVGLVQAGGSLRLSCAASGRIFIDYAMGWYRQAPGKERELVATISESGGSTYYADSVKGRFTISRDNAKNTVYLQMNSLKPEDTAVYYCAVDDRYGTVYFYTKFDYWGQGTQVTVSS
- polyreactivity (PSR sort gate): low polyreactivity

Source: the nanobody polyreactivity screen of Harvey et al. (2022)
